Measurements: patent publication US10005838B2, “Milk fat globule epidermal growth factor 8 regulates fatty acid uptake” (REGENTS OF THE UNIVERSITY OF CALIFORNIA, priority 2013, dated 2018)

Test: Activity of Mfge8 sequence lacking the second discoidin domain (test not named at the place)
Conditions: mouse Mfge8 lacking the second discoidin domain

B1: SEQ ID NO:4: mouse Mfge8 sequence lacking the second discoidan domain but including all other native sequence (protein)
chain: MQVSRVLAALCGMLLCASGLFAASGDFCDSSLCLNGGTCLTGQDNDIYCLCPEGFTGLVCNETERGPCSPNPCYNDAKCLVTLDTQRGDIFTEYICQCPVGYSGIHCETETNYYNLDGEYMFTTAVPNTAVPTPAPTPDLSNNLASRCSTQLGMEGGAIADSQISASSVYMGFMGLQRWGPELARLYRTGIVNAWTASNYDSKPWIQVNLLRKMRVSGVMTQGASRAGRAEYLKTFKVAYSLDGRKFEFIQDESGGDKEFLGNLDNNSLKVNMFNPTLEAQYIKLYPVSCHRGCTLRFELLGCKPFMARYVRVLPVSWHNRITLRLELLGC
modifications: synthetic E1E2D1 mouse milk fat globule epidermal growth factor 8 (Mfge8) long construct (lacking second discoidin domain)
With B1 the “activity of the Mfge8 fragment” value was “remains active”.
